# Reference: US20190317095A1 (ALLERGAN, published 2019)
# How the values were obtained:
# [1] = target: T1, SNAP25206, full-length SNAP25 (human) (human, UniProt P60880 1-206); assay: IHC, human back skin biopsies +/- onabotulinumtoxinA (FIG. 9)
# [2] = target: T2, SNAP25206, full-length SNAP25 (rat) (rat, UniProt P60881 1-206); assay: Western blot, rat embryonic cortical cell lysates +/- BoNT/A
# [3] = target: T2, SNAP25206, full-length SNAP25 (rat); assay: IHC, vehicle-treated rat glabrous skin (FIG. 8F-J)
# [4] = target: SNAP25197, BoNT/A-cleaved SNAP25 (human) (human, UniProt P60880 1-197); assay: Western blot, SiMa cell lysates +/- BoNT/A
# [5] = target: T3, SNAP25180, BoNT/E-cleaved SNAP25 (human) (human, UniProt P60880 1-180); assay: Western blot, SiMa cell lysates treated with BoNT/A, BoNT/C, BoNT/E or no toxin
# T3 construct: range 1-180
# [6] = target: T1, SNAP25206, full-length SNAP25 (human); assay: as above
# [7] = target: T4, SNAP25198, BoNT/C-cleaved SNAP25 (human) (human, UniProt P60880 1-198); assay: as above
# T4 construct: range 1-198
# [8] = target: SNAP25197, BoNT/A-cleaved SNAP25 (rat) (rat, UniProt P60881 1-197); assay: Western blot, summary (rat cortical lysates; SiMa lysates also run)
# Chain of SNAP25197, BoNT/A-cleaved SNAP25 (rat) (P60881 1-197 limits assumed): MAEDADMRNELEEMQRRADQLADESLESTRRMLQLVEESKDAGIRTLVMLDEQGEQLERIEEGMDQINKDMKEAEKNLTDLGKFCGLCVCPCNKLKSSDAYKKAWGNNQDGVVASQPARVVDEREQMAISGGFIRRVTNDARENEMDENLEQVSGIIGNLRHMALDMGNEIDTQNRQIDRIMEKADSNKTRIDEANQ
# T2 sequence (P60881 whole entry): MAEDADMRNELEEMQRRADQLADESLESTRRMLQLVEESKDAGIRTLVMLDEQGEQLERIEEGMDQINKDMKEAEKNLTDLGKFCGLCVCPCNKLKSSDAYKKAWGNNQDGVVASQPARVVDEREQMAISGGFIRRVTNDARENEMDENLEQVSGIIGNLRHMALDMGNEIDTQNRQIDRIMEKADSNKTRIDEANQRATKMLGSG
# T1 sequence (P60880 whole entry): as the sequence (P60881 whole entry) above
# T4 sequence (P60880 1-198 limits assumed): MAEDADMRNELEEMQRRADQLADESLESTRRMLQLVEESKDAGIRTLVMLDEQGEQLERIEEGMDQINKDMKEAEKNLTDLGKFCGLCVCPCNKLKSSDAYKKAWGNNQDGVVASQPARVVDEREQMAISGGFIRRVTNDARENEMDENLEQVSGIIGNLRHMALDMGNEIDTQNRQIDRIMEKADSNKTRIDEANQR
# T3 sequence (P60880 1-180 limits assumed): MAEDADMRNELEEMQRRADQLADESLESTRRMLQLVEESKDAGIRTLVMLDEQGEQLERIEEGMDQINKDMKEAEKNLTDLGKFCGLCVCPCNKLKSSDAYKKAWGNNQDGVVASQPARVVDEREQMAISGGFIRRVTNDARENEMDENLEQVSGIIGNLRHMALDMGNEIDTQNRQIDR
# Chain of SNAP25197, BoNT/A-cleaved SNAP25 (human) (P60880 1-197 limits assumed): as the sequence (P60881 1-197 limits assumed) above
binder,measurement,setting,value
Ab635 anti-SNAP25197 rMAb (Murine-3C1A5) (antibody) heavy: QVKLQESGAELVKPGASVKISCKASGYTFTDHSIHWVKQKPGQGLEWIGYLFPGNGNFEYNEKFKGKATLTADKSSSTVYMYLNSLTSEDSAVYFCKRMGYWGQGTTVTVSSAKTTPPSVYPLAPGSAAQTNSMVTLGCLVKGYFPEPVTVTWNSGSLSSGVHTFPAVLESDLYTLSSSVTVPSSPRPSETVTCNVAHPASSTKVDKKIVPRDCGCKPCICTVPEVSSVFIFPPKPKDVLTITLTPKVTCVVVDISKDDPEVQFSWFVDDVEVHTAQTQPREEQFNSTFRSVSELPIMHQDWLNGKEFKCRVNSAAFPAPIEKTISKTKGRPKAPQVYTIPPPKEQMAKDKVSLTCMITDFFPEDITVEWQWNGQPAENYKNTQPIMNTNGSYFVYSKLNVQKSNWEAGNTFTCSVLHEGLHNHHTEKSLSHSPGK light: not shown,binding result,[1],no binding
same,binding result,[2],no binding
"original non-recombinant 3C1A5 mAb purified from ascites (antibody, V domains shown) VH: QVKLQESGAELVKPGASVKISCKASGYTFTDHSIHWVKQKPGQGLEWIGYLFPGNGNFEYNEKFKGKATLTADKSSSTVYMYLNSLTSEDSAVYFCKRMGYWGQGTTVTVSS VL: DVVMTQTPLTLSVTIGQPASISCKSSQSLLNTNGKTYLTWLIQRPGQSPQRLIYLVSKLDSGVPDRFSGSGSGTDFTLKISRVEAEDLGVYYCLQSSHFPFTFGSGTKLEIK",binding result,[3],no binding
Ab632 anti-SNAP25197 rMAb (Human-3C1A5) (antibody) heavy: not shown light: DVVMTQTPLTLSVTIGQPASISCKSSQSLLNTNGKTYLTWLIQRPGQSPQRLIYLVSKLDSGVPDRFSGSGSGTDFTLKISRVEAEDLGVYYCLQSSHFPFTFGSGTKLEIKRTVAAPSVFIFPPSDEQLKSGTASVVCLLNNFYPREAKVQWKVDNALQSGNSQESVTEQDSKDSTYSLSSTLTLSKADYEKHKVYACEVTHQGLSSPVTKSFNRGEC,binding result,[4],binds
same,binding result,[5],no binding
same,binding result,[6],no binding
same,binding result,[7],no binding
same,binding result,[8],binds
same,binding result,[2],no binding
